# T1: C2 (Homo sapiens, UniProt P06681)
# T1 construct: from tissue
# T1 sequence (P06681 21-752): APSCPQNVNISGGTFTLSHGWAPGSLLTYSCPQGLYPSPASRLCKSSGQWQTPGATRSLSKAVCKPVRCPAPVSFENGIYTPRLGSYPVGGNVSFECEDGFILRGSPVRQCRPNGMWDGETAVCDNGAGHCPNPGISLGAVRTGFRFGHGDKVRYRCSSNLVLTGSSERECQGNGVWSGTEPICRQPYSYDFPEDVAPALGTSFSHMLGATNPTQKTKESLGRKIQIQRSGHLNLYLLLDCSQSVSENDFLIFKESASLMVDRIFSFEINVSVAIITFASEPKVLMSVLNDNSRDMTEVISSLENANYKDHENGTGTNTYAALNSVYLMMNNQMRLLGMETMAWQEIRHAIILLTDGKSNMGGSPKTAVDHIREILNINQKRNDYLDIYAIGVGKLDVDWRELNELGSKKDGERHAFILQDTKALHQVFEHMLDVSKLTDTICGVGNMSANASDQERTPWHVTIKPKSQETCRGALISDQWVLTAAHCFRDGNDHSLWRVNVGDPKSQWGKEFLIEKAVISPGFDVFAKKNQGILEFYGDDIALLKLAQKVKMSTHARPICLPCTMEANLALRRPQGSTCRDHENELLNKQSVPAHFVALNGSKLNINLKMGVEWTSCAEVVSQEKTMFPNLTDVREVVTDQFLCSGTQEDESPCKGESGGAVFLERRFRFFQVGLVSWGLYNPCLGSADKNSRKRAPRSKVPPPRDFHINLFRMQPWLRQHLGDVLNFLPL
# T2: C1-inhibitor (Homo sapiens, UniProt P05155)
# T2 construct: Purification of C1-inh and Alpha-2-Macroglobulin; from tissue
# T2 sequence (P05155 23-500): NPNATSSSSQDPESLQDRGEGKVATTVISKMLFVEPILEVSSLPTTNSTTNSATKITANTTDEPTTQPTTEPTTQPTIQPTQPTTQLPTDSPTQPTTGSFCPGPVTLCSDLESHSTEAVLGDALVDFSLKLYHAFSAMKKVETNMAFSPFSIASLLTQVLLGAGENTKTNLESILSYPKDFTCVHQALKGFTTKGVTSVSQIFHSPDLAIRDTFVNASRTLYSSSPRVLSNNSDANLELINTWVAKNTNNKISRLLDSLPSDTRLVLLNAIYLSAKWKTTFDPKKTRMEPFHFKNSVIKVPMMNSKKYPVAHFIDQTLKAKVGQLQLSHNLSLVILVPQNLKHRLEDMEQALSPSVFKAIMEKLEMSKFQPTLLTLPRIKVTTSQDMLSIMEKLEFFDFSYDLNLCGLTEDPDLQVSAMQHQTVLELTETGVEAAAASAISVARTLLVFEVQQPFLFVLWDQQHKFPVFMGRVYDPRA
# Legend:
# C2 = target: T1, C2; assay: C2 cleavage by MASP fragments; assay type: biochemical; settings: 37° C., pH 7.4; averages of 2 to 4 experiments, standard errors
# Method: C2, C3, C3(NH3), C4 cleavage—Serial dilutions of MASP-1 and MASP-2 fragments ranging between concentrations of 1 μM and 10 pM were incubated at 37° C. in 20 mM HEPES, 140 mM NaCl, pH 7.4 with C2, C3, C3(NH3) or C4 at typical concentrations of 0.5-1 μM. The cleavage was followed by SDS-PAGE under reducing conditions. Desirable concentrations of the MASP fragments for further detailed kinetic analysis were chosen to be where half of the protein substrates were hydrolyzed during the first 20 minutes of incubation. The protein substrates C2, C3, C3(NH3) or C4 were then incubated with the selected concentrations of the MASP fragments at 37° C. in 20 mM HEPES, 140 mM NaCl, pH 7.4. Typically 11-13 samples were taken at varying time periods but always within 50 minutes from the beginning of the reaction. Cleavages rates were quantified by measuring the diminution of the cleaved chain visualized by Coomassie stained SDS-PAGs using a GEL DOC 1000 instrument and Molecular Analyst Software for densitometric calculations (Bio-Rad, Hercules, Calif., USA). The reactions were assumed to be of the Michaelis-Menten type. In the case of C3 and C3(NH3) cleavage a further reasonable assumption of KM>>[substrate] was made. The constants KM, kcat and […] were estimated by unbiased non-linear regression methods regressing the data on the following equations: t=([S0]−[S]+KMln([S0]/[S]))/(kcat[E0]) or in the case of C3 and C3(NH3) cleavage on [S]=[S0]exp(−t[E0]kcat/KM).
# C1-inhibitor = target: T2, C1-inhibitor; assay: Rate of SDS stable complex formation of 125I-labelled MASP fragments with C1-inhibitor; assay type: biochemical
# Method: To assess the rate of SDS stable complex formation between the MASP-1 and MASP-2 CCP1-CCP2-SP fragments and C1-inhibitor, the ^125I-labelled MASP fragments at concentrations ranging between 30-100 nM were incubated with 100-350 nM C1-inhibitor at 37° C. in 20 mM HEPES, 140 mM NaCl, pH 7.4 for 40 minutes. Typically 11-13 samples were taken at varying time periods. The reactions were stopped by reducing sample buffer containing 0.125 M Tris, 4.8% SDS, 8 M urea 20% glycerol, 720 mM mercaptoethanol, 0.02% bromophenol blue, pH6.8. The samples were further incubated at 37° C. for 30 minutes and run on reducing SDS-PAGE. Cleavages rates were visualized by means of autoradiography and the diminution of the reacted MASP chain was quantified using a GEL DOC 1000 instrument and Molecular Analyst Software for densitometric calculations (Bio-Rad, Hercules, Calif., USA). The kinetic constants were calculated assuming irreversible inhibition proceeded by reversible enzyme-inhibitor complex formation. Using steady-state approximation and neglecting the starting enzyme concentration compared to the starting inhibitor concentration ([I0]>>[E0]) the data was regressed on the following equation using non-linear regression methods: [E]=[E0]exp(−kobst); kobs=k2[I0]/(Ki+[I0]), where kobs is the observed pseudo-first order rate of reaction, k2 is the rate of irreversible enzyme-inhibitor complex formation and Ki is the inhibitory constant.
molecule,measurement,setting,value
"MASP-1γB: E. coli-expressed, refolded human MASP-1 CCP1-CCP2-SP fragment, Gly298 to Asn699 with N-terminal Ala-Ser-Met-Thr tag (protein) chain 1: ASMTGNECPELQPPVHGKIEPSQAKYFFKDQVLVSCDTGYKVLKDNVEMDTFQIECLKDGTWSNKIPTCKIVDCRAPGELEHGLITFSTRNNLTTYKSEIKYSCQEPYYKMLNNNTGIYTCSAQGVWMNKVLGRSLPTCLPVCGLPKFSRKLMAR chain 2: IFNGRPAQKGTTPWIAMLSHLNGQPFCGGSLLGSSWIVTAAHCLHQSLDPEDPTLRDSDLLSPSDFKIILGKHWRLRSDENEQHLGVKHTTLHPQYDPNTFENDVALVELLESPVLNAFVMPICLPEGPQQEGAMVIVSGWGKQFLQRFPETLMEIEIPIVDHSTCQKAYAPLKKKVTRDMICAGEKEGGKDACAGDSGGPMVTLNRERGQWYLVGTVSWGDDCGKKDRYGVYSYIHHNKDWIQRVTGVRN",C2 kcat,C2,0.10 ± 0.07 s⁻¹
same,"kobs with C1-inhibitor, fold less than for the MASP-2 CCP1-CCP2-SP fragment",C1-inhibitor,5 fold
same,"kobs, pseudo-first order rate of reaction with C1-inh","C1-inhibitor; [C1-inh] = 350 nM, 37° C., pH 7.4",0.0014 s⁻¹
